Publication PMC7442640, “The oligomeric assembly of galectin-11 is critical for anti-parasitic activity in sheep (Ovis aries)” (Communications Biology, 2020)
One block for each compound: values may come before it.

Tests used:
[1] = target: T1, LGALS-11 isoform 1 (galectin-11) (Ovis aries, UniProt A0A0A7EMW6); test: X-ray crystallography; type: binding; details: 2.40 Å complex structure; carbohydrate recognition domain (R53, N64, E74 hydrogen bonds; V62, W71 contacts)
T1 construct: gene LGALS15; recombinant, modified pET-28, E. coli BL21(DE3); alignment over 137 residues; homotetramer; natural variant with L9 and D124
T1 sequence (A0A0A7EMW6 1-137): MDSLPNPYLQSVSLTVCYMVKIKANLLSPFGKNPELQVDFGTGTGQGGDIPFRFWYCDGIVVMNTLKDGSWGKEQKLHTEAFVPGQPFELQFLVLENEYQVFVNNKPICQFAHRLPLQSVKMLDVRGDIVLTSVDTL

[2] = target: galectin-11 (LGALS-11) isoform 1 of sheep (Ovis aries) (sheep (Ovis aries))
[3] = target: galectin-11 (LGALS-11) isoform 1 of sheep (Ovis aries) (sheep (Ovis aries)); test: AUC; sedimentation velocity, c(s) analysis with SEDFIT; 0.10, 0.30 and 0.90 mg/ml; 20 mM Tris-HCl pH 8.0, 100 mM NaCl, 0.5 mM TCEP; 20 °C; absorbance at 280 nm
[4] = target: galectin-11 (LGALS-11) isoform 2 of sheep (Ovis aries) (sheep (Ovis aries))
[5] = target: galectin-11 (LGALS-11) isoform 2 of sheep (Ovis aries) (sheep (Ovis aries)); test: AUC; sedimentation velocity, c(s) analysis with SEDFIT; 0.10, 0.30 and 0.90 mg/ml; 20 mM Tris-HCl pH 8.0, 100 mM NaCl, 0.5 mM TCEP; 20 °C; absorbance at 280 nm

Compound: OC[C@H]1O[C@@H](O)[C@H](O)[C@@H](O)[C@H]1O [β-D-galactose]
X-ray crystallography [1]: This galactose bound directly to the residues present in the four adjacent strands

xL3s of H. contortus that did not develop to L4s when exposed to isoform 1 (1.0 mg/ml) [2]: 85% | stoichiometry N [3]: 4
Compound: galectin-11 (LGALS-11) isoform 1 of sheep (Ovis aries) (natural protein)
L4s of H. contortus with cuticular damage, shrunken soma and internal granules after 72 h with isoform 1 [2]: > 95%

stoichiometry N [5]: 2
Compound: galectin-11 (LGALS-11) isoform 2 of sheep (Ovis aries) (natural protein)
L4s of H. contortus with internal or cuticular damage after 72 h with isoform 2 [4]: < 10%
